From paper PMC7801690, “Crystal structure of a thermophilic fungal cyanase and its implications on the catalytic mechanism for bioremediation” (Scientific Reports, 2021)

How the values were obtained:
[1] = biological target: cyanase from the thermophilic fungus Thermomyces lanuginosus (Tl-Cyn) (Thermomyces lanuginosus); test: crystal structure; sitting-drop vapour diffusion at 20 °C, protein 13 mg/mL; reservoir 2% Tacsimate (pH 8.0), 0.1 M Tris (pH 8.5), 16% PEG 3,350; malonate and formate bound in the active sites; 2.2 Å
N#CO = test: purified protein; details: apparent Km; 0.05 to 3.0 mM potassium cyanate; bicarbonate-dependent
Excerpt: cyanase activity (ammonium release), Lineweaver-Burk on Tl-Cyn

Substance | stoichiometry N [1] | Km (N#CO)
cyanase from the thermophilic fungus Thermomyces lanuginosus (Tl-Cyn) (enzyme) | 10 | –
Tl-Cyn (Thermomyces lanuginosus) | – | 360 ± 40 µM
